Results taken from PMC5547543.
Where two headings read alike, the source gives them in different places.

What was measured:
[1] = target: Hck (2PA-YEEI) (UniProt P08631); experiment: SPR; Hck (2PA-YEEI) amine-coupled (EDC/NHS) to a CMD 500 carboxymethyl dextran chip, 6053 RU, BIAcore 2000; Csk, Chk, Chk mutants and chimera as analytes in HBS (10 mM HEPES pH 7.4, 150 mM NaCl, 3.4 mM EDTA, 0.005% Tween 20); global fit to a 1 to 1 model with mass transfer; molecular binding activity from the maximum response
[2] = target: Hck (2PA-YEEI) (UniProt P08631); experiment: as above; remark: listed apart in the source

C-terminal Src kinase (Csk), recombinant, sequence (P41240 whole entry): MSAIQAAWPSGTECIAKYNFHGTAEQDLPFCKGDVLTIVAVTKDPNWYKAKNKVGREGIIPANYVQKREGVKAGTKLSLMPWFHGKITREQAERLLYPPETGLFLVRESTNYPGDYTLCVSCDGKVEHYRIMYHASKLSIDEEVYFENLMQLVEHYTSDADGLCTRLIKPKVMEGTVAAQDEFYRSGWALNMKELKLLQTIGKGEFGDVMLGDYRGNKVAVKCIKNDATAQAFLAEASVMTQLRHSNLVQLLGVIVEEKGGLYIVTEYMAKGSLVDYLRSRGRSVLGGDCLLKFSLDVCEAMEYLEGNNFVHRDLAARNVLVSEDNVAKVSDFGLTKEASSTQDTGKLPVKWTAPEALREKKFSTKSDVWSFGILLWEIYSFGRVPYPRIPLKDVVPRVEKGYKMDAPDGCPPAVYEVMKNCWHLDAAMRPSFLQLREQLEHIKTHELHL

Row | Substance | Kd [1] | koff [1] | kon [1] | molecular binding activity (MBA) at 2.7 μM Csk ([1]; scale: mol of analyte bound per mol of immobilized Hck) | Kd [2] | fold reduction of kon against wild type Chk [1]
1 | C-terminal Src kinase (Csk), recombinant (from UniProt P41240 1-450) (enzyme) | 13.1 µM | 0.0077 s⁻¹ | 588 M⁻¹ s⁻¹ | 0.01 | 13 µM | 
2 | Chk (K387A) (from UniProt P42679-2 1-508) (enzyme) |  |  |  |  | 0.295 µM | 3 fold
3 | Chk (R382A) (from UniProt P42679-2 1-508) (enzyme) |  |  |  |  | 0.227 µM | 3 fold
4 | Csk-Chk chimera (from UniProt P41240 1-181; P42679 235-482) (enzyme) |  | 0.00031 s⁻¹ | 243 M⁻¹ s⁻¹ |  |  | 
